IntAct's records for PubMed 11713520

B1: Auxin-responsive protein IAA17 (Arabidopsis thaliana (Mouse-ear cress)), P93830 (parent)
chain: MMGSVELNLRETELCLGLPGGDTVAPVTGNKRGFSETVDLKLNLNNEPANKEGSTTHDVVTFDSKEKSACPKDPAKPPAKAQVVGWPPVRSYRKNVMVSCQKSSGGPEAAAFVKVSMDGAPYLRKIDLRMYKSYDELSNALSNMFSSFTMGKHGGEEGMIDFMNERKLMDLVNSWDYVPSYEDKDGDWMLVGDVPWPMFVDTCKRLRLMKGSDAIGLAPRAMEKCKSRA
partner: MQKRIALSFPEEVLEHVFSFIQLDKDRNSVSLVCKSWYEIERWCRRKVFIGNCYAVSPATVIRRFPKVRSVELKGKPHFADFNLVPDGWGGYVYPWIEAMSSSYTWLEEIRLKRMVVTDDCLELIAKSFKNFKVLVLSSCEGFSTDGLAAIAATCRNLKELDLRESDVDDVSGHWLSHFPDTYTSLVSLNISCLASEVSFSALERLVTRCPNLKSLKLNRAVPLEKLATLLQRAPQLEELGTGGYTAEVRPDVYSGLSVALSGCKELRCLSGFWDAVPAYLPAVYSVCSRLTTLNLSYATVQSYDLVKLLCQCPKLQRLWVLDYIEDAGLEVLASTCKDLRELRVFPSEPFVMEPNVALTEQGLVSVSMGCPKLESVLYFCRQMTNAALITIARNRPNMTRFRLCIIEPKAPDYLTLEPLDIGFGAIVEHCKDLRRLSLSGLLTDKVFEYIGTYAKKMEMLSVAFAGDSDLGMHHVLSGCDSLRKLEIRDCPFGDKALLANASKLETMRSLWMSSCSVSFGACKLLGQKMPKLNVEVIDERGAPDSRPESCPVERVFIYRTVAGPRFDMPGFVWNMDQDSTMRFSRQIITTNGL

Variants of: B1
Details: with tir1_arath TIR1, Q570C0
In the case of P88L, the “effect of a mutation on the interaction” value is reported as “decreasing interaction”.
